Laboratory results reported in patent US20250326851A1 (Bayer, published 2025).
Values joined by “and” are separate entries in the source; they are usually repeats but may differ in a detail not shown here. Equal values may be shown once. Values belong to the binder of their own block, whether it stands above or below them.

Key:
[1] = target: T1, Mouse FcγRIIA/CD32a (R167) (mouse); experiment: SPR; approximation, saturation not reached
T1 construct: The printed name is that of a human receptor allotype; kept as printed; also called mFcγR variant
Procedure: (§1) The binding of murine surrogate antibodies to mouse Fc receptor variants (mFcγR and mFcRn) was analyzed by SPR.

Mouse FcγRIIIB/CD16b = target: T2, Mouse FcγRIIIB/CD16b (mouse); experiment: SPR; approximation, saturation not reached
T2 construct: The printed name is that of a human receptor; kept as printed; also called mFcγR variant
Procedure: as §1

[2] = target: T3, mouse CCR8 on HEK293 cells (mouse, UniProt P56484 1-353); experiment: cell-based or functional assay
T3 sequence (looked up): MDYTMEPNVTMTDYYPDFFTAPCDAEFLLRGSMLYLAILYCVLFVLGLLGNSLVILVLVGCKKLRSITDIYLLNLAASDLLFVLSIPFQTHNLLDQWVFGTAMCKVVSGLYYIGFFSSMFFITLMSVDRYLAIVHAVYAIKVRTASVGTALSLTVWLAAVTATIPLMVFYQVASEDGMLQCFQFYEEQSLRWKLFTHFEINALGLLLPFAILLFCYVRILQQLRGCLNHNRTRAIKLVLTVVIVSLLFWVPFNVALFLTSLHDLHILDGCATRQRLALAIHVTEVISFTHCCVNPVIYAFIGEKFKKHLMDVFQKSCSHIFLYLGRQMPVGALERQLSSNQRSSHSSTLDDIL

[3] = target: T3, mouse CCR8 on HEK293 cells; experiment: flow cytometry on murine CCR8-transfected HEK293 cells
Procedure: (§2) The binding properties of murine surrogate antibodies were assessed using flow cytometry on HEK293 cells ectopically expressing murine CCR8.

[4] = target: T3, mouse CCR8 on HEK293 cells; experiment: flow cytometry, mouse CCR8-expressing HEK293 cells; reference TPP-15285
Procedure: as §2

Mouse FcRn = target: T4, Mouse FcRn (mouse, UniProt Q61559 22-297; P01887 21-119); experiment: SPR
T4 construct: also called mFcRn; murine FcRn
T4 sequence (looked up) 1: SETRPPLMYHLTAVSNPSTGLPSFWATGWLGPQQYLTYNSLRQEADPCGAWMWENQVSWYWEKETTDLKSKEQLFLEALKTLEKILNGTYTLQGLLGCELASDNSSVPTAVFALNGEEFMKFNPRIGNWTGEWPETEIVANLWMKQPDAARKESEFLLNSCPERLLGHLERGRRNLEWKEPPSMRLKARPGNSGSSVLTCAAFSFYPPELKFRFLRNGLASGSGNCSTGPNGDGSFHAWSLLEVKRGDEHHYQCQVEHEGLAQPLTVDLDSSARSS
T4 sequence (looked up) 2: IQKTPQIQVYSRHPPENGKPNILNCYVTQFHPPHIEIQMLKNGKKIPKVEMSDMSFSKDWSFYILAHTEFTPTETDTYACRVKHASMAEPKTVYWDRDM
Procedure: as §1

Mouse FcγRIV/CD16-2 = target: T5, Mouse FcγRIV/CD16-2 (mouse, UniProt A0A0B4J1G0 21-203); experiment: SPR
T5 construct: also called mFcγR variant
T5 sequence: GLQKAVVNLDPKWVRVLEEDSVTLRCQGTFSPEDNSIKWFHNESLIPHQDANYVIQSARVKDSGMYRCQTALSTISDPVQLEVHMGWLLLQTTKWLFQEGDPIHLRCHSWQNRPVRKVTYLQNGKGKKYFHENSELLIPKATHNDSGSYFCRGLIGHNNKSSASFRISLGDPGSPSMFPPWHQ
Procedure: as §1

[5] = target: T3, mouse CCR8 on HEK293 cells; experiment: cell-based or functional assay; remark: listed apart in the source
human CCR8 [6] = target: T6, human CCR8 (human, UniProt P51685 1-355); experiment: cell-based or functional assay
T6 sequence (P51685 whole entry): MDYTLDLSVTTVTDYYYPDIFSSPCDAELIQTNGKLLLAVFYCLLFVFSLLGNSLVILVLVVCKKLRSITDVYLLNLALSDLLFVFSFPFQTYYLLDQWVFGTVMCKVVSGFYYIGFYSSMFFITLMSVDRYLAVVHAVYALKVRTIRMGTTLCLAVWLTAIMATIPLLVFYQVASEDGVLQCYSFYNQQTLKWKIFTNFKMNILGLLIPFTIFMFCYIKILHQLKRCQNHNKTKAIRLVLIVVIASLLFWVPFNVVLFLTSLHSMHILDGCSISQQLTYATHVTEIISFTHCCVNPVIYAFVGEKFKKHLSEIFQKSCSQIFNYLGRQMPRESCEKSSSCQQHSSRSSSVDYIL

human CCR8 [7] = target: T6, human CCR8; experiment: cell-based or functional assay; remark: listed apart in the source
human CCR8 [8] = target: T6, human CCR8; experiment: flow cytometry using HEK293 cells, 0.0046 to 10 µg/mL (selectivity study)

Kd [1]: ~12000 nM | Kd (Mouse FcγRIIIB/CD16b): ~19000 nM | ADCC EC50 (ng/mL) at 20 hours; mouse CCR8-expressing HEK293 cells, mouse NK cells [2]: 1.33 ng/mL | ADCC EC50 (pM) at 20 hours; mouse CCR8-expressing HEK293 cells, mouse NK cells [2]: 9.28 pM | EC50 [3]: 0.495 nM and 0.071 µg/mL | fold higher affinity compared to TPP-15825 [4]: 10 fold | Kd (Mouse FcγRIV/CD16-2): 1400 nM | cumulative ADCP EC50 (ng/mL), 4 hours; mouse CCR8-expressing HEK293 cells, mouse M2 macrophages [5]: 74.3 ng/mL | cumulative ADCP EC50 (ng/mL), 12 hours; mouse CCR8-expressing HEK293 cells, mouse M2 macrophages [5]: 28.3 ng/mL | cumulative ADCP EC50 (pM), 4 hours; mouse CCR8-expressing HEK293 cells, mouse M2 macrophages [5]: 518 pM | cumulative ADCP EC50 (pM), 12 hours; mouse CCR8-expressing HEK293 cells, mouse M2 macrophages [5]: 197 pM
B1: TPP-29338 (short half-life) (antibody, mouse IgG2a)
heavy: EVQLLESGGGLVQPGGSLRLSCAASGFTFSDYGVHWVRQAPGKGLEWVSGVSWNGSRTHYADSVKGRFTISRDNSKNTLYLQMNSLRAEDTAVYYCVTRGAWGQGTLVTVSSAKTTAPSVYPLAPVCGDTTGSSVTLGCLVKGYFPEPVTLTWNSGSLSSGVHTFPAVLQSDLYTLSSSVTVTSSTWPSQSITCNVAHPASSTKVDKKIEPRGPTIKPCPPCKCPAPNLLGGPSVFIFPPKIKDVLMISLSPIVTCVVVDVSEDDPDVQISWFVNNVEVHTAQTQTHREDYNSTLRVVSALPIQANDWMSGKEFKCKVNNKDLPAPIERTISKPKGSVRAPQVYVLPPPEEEMTKKQVTLTCMVTDFMPEDIYVEWTNNGKTELNYKNTEPVLDSDGSYFMYSKLRVEKKNWVERNSYSCSVVHEGLAQHHTTKSFSRTPGK
light: QSVLTQPPSASGTPGQRVTISCSGSSFNIGSHFVYWYQQLPGTAPKLLIYKNNQRPSGVPDRFSGSKSGTSASLAISGLRSEDEADYYCAAWDDSLNGPVFGGGTKLTVLGQPKSSPSVTLFPPSSEELETNKATLVCTITDFYPGVVTVDWKVDGTPVTQGMETTQPSKQSNNKYMASSYLTLTARAWERHSSYSCQVTHEGHTVEKSLSRADCS
binding result (Mouse FcRn): no binding (tested: 15.6 to 2,000 nM (FcRn assay))

ADCC EC50 (ng/mL) at 20 hours; mouse CCR8-expressing HEK293 cells, mouse NK cells [2]: 32.6 ng/mL | ADCC EC50 (pM) at 20 hours; mouse CCR8-expressing HEK293 cells, mouse NK cells [2]: 227 pM | EC50 [3]: 12.5 nM and 1.8 µg/mL | cumulative ADCP EC50 (ng/mL), 4 hours; mouse CCR8-expressing HEK293 cells, mouse M2 macrophages [5]: 54.5 ng/mL | cumulative ADCP EC50 (ng/mL), 12 hours; mouse CCR8-expressing HEK293 cells, mouse M2 macrophages [5]: 22.7 ng/mL | cumulative ADCP EC50 (pM), 4 hours; mouse CCR8-expressing HEK293 cells, mouse M2 macrophages [5]: 380 pM | cumulative ADCP EC50 (pM), 12 hours; mouse CCR8-expressing HEK293 cells, mouse M2 macrophages [5]: 158 pM
B2: TPP-15285 (normal half-life) (antibody, V domains shown)
VH: EVQLLESGGGLVQPGGSLRLSCAASGFTFSDYGVHWVRQAPGKGLEWVSGVSWNGSRTHYADSVKGRFTISRDNSKNTLYLQMNSLRAEDTAVYYCVTRGAWGQGTLVTVSS
VL: not shown
notes: Anti-mouse CCR8 antibody, human VH/VL chimerized to mIgG2a (lambda)

ADCP EC50; Tregs, donor 1100 (63% CCR8 expression), human M2c macrophages (human CCR8 [6]): 0.143 nM | ADCP EC50; Tregs, donor 1163 (40% CCR8 expression), human M2c macrophages (human CCR8 [6]): 0.44 nM | ADCC EC50; HEK-hCCR8 target cells, NK92V effector cells (human CCR8 [7]): 0.0128 nM | ADCC EC50; Tregs, donor 1100 (85.0% CCR8 expression), NK92V effector cells (human CCR8 [7]): 0.0281 nM | ADCC EC50; Tregs, donor 1163 (31.4% CCR8 expression), NK92V effector cells (human CCR8 [7]): 0.0559 nM | EC50 (human CCR8 [8]): 0.129 µg/mL
B3: TPP-23411 (afucosylated) (antibody, human IgG1, lambda, V domains shown)
VH: EVQLLESGGGLVQPGGSLRLSCAASGFTFSSYGMHWVRQAPGKGLEWVSAINWNGGSTGYADSVKGRFTISRDNSKNTLYLQMNSLRAEDTAVYYCARGHHSGYDGRFFDYWGQGTLVTVSS
VL: QSVLTQPPSVSGAPGQRVTISCTGSSSNIGAGYNVHWYQQLPGTAPKLLIYTNNRRPSGVPDRFSGSKSGTSASLAISGLRSEDEADYYCAAWDASLSGWVFGGGTKLTVLG
modifications: afucosylated Fc glycan
notes: Fully human IgG1 lambda; In the ADA bridging assay it was biotinylated or SULFO-tagged; also called 21360-hIgG1wtlambda; anti-human CCR8 antibody hIgG1 isotype (afucosylated)

ADCP EC50; Tregs, donor 1100 (63% CCR8 expression), human M2c macrophages (human CCR8 [6]): 0.155 nM | ADCP EC50; Tregs, donor 1163 (40% CCR8 expression), human M2c macrophages (human CCR8 [6]): 0.148 nM | ADCC EC50; HEK-hCCR8 target cells, NK92V effector cells (human CCR8 [7]): 0.0702 nM
B4: TPP-23411 (wild-type) (antibody, human IgG1, lambda, V domains shown)
VH: B3 VH
VL: B3 VL
modifications: conventional (fucosylated) glycosylation
